Results on 1 substance are retold here after article PMC6885295, “Soluble Production, Characterization, and Structural Aesthetics of an Industrially Important Thermostable β-Glucosidase from Clostridium thermocellum in Escherichia coli” (BioMed Research International, 2019).

In the data set the test system is T1, OCc1ccccc1O[C@@H]1O[C@H](CO)[C@@H](O)[C@H](O)[C@H]1O.
T1 construct: forward primer reads ATG GCA AAG ATA ACT TTC (N-terminus MAKITF, NcoI site may change residue 2)
The data set is described as follows: DNS reducing-sugar assay, Lineweaver-Burk plot. The class given is biochemical, Acetivibrio thermocellus. Conditions: 1.5 M Tris-Cl pH 7.0, 50 °C, 30 min, substrate range 2.5-20 mM.

What is called Km is the substrate concentration at which the rate is half of its maximum. With “BglA (Acetivibrio thermocellus ATCC 27405; S2A)”, the Km worked out at 19.83 mM.
